Series [1] deals with the molecule itself. Briefly: cryo-EM structure.
Series [2] concerns the target purified human PSA (shorter isoform), mCherry-Strep-tag II removed by thrombin (human, UniProt P55786-1 45-919). Nature of the series: cryo-EM structure.

The values that follow come from article PMC12407707 (bioRxiv, 2025).

Chain of purified human PSA (shorter isoform), mCherry-Strep-tag II removed by thrombin (P55786 45-919): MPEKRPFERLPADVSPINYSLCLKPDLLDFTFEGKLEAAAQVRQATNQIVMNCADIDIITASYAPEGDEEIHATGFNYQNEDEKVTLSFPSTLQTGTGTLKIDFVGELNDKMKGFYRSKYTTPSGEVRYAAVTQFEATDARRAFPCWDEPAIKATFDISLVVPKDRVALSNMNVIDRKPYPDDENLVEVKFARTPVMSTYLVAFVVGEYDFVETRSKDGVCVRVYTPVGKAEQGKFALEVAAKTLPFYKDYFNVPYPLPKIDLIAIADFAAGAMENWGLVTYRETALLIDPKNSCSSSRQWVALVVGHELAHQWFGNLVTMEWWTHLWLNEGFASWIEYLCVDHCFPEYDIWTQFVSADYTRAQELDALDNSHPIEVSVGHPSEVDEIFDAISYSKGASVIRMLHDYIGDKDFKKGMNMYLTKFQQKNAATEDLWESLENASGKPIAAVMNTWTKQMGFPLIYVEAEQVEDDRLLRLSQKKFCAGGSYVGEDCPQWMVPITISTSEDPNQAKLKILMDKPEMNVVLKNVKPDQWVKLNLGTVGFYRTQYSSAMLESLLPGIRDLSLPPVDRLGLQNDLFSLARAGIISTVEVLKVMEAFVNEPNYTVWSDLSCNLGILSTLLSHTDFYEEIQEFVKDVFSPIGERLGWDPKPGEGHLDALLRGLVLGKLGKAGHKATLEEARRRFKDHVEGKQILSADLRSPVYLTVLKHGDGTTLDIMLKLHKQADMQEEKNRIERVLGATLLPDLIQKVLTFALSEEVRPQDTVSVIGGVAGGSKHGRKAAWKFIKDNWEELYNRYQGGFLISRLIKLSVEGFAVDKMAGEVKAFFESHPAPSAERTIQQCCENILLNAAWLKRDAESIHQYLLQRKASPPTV

B1: purified human SWELL1 homo-hexamer, tag removed by thrombin (cryo-EM sample) (natural protein)
chain: MIPVTELRYFADTQPAYRILKPWWDVFTDYISIVMLMIAVFGGTLQVTQDKMICLPCKWVTKDSCNDSFRGWAAPGPEPTYPNSTILPTPDTGPTGIKYDLDRHQYNYVDAVCYENRLHWFAKYFPYLVLLHTLIFLACSNFWFKFPRTSSKLEHFVSILLKCFDSPWTTRALSETVVEESDPKPAFSKMNGSMDKKSSTVSEDVEATVPMLQRTKSRIEQGIVDRSETGVLDKKEGEQAKALFEKVKKFRTHVEEGDIVYRLYMRQTIIKVIKFILIICYTVYYVHNIKFDVDCTVDIESLTGYRTYRCAHPLATLFKILASFYISLVIFYGLICMYTLWWMLRRSLKKYSFESIREESSYSDIPDVKNDFAFMLHLIDQYDPLYSKRFAVFLSEVSENKLRQLNLNNEWTLDKLRQRLTKNAQDKLELHLFMLSGIPDTVFDLVELEVLKLELIPDVTIPPSIAQLTGLKELWLYHTAAKIEAPALAFLRENLRALHIKFTDIKEIPLWIYSLKTLEELHLTGNLSAENNRYIVIDGLRELKRLKVLRLKSNLSKLPQVVTDVGVHLQKLSINNEGTKLIVLNSLKKMANLTELELIRCDLERIPHSIFSLHNLQEIDLKDNNLKTIEEIISFQHLHRLTCLKLWYNHIAYIPIQIGNLTNLERLYLNRNKIEKIPTQLFYCRKLRYLDLSHNNLTFLPADIGLLQNLQNLAITANRIETLPPELFQCRKLRALHLGNNVLQSLPSRVGELTNLTQIELRGNRLECLPVELGECPLLKRSGLVVEEDLFNTLPPEVKERLWRADKEQA
In general, stoichiometry N refers to the number of molecules, sites or subunits per partner or assembly. Take B1: the “stoichiometry N” value in series [1] turned out to be 6. Besides, the binding result in series [2] is “binds”.
